Paper PMC7954794, “Protein context shapes the specificity of SH3 domain-mediated interactions in vivo” (Nature Communications, 2021)

System: growth of yeast strains under 51 stress conditions
Test: Growth assays in 51 stress conditions (Fig. 1E-F, S2D, S5B)
Type: cell-based, Saccharomyces cerevisiae
Set-up: key to Growth (Fig. S2D) / growth of ABP1 SH3-swapped strains in stress condition: log2 colony size, average of median per strain (growth score)
Conditions: for Growth (Fig. S2D): ABP1 SH3-swapped strains
Protocol: All WT, SH3-deleted, KO (except for CDC25 which is the only essential SH3-containing gene in yeast), ABP1 SH3-swapped, and SLA1 SH3-shuffled strains were grown on omnitrays in 1536 formats and robotically manipulated with a pin tool (the DHFR F[1,2] bait strains were used except for the KO strains). Each strain was randomly positioned in 6 replicates per plate and two plates per condition were performed, for 12 replicates per strain in total. A border of two rows and two columns of WT strains (BY4741) around the plate was used to remove border effects. Strains were grown on YPD media for two days at 30 °C. They were then replicated on 51 different media that are described in the Supplementary Table 3 and were incubated at 37 °C in a spImager custom platform with images acquired every two hours for four days. The colony sizes from plate pictures were also measured with the R package “Gitter” and the output was manually inspected. Positions with an abnormality in colony circularity were removed. The colony sizes after 74 h of incubation at 37 °C were log2 transformed and used for the analyses. First, the differences between the two plate replicates were corrected to remove plate effects. The median colony size was calculated for each strain per plate. Strains with a difference in their median colony size of more than two between the two plate replicates were removed. Finally, the average of the median colony size was calculated for each strain per condition (growth score).

B1: CYK3 (protein, UniProt Q07533 1-885, looked up)
Cytokinesis protein 3: MATNLTSLKPPFKVKARYGWSGQTKGDLGFLEGDIMEVTRIAGSWFYGKLLRNKKCSGYFPHNFVILLEERLNSSTENGRQPSKIVESFEKSNKVVIPPVPSRYSDERPRPKKKLSSSMPNSPKKPVDSLTKARKAKSKEMVNEKNIYNTQSSRHHNNSAPNLPLASHSKPQVRNFEESMNNPLPPLPPLPDLDNMRKTDKRAPKKSYSANDLHMARSSREYNYYKDNQKFYDGFIPEKRYSLEEDSISSGLFSNSQYLNDSACSSENSFALMSDFSATSAGSFARHKYAQSFSDSLQRSQNANGCSTKINDSQEFGDSNASSRNGKMGDILRKIIIPKRNTNIYSSSVSSPKSPKAYPKLPDIQNLNLSATPDEARDWIAVKCHLNRARTLTKYDKHPRYMRALEENRDLILHPQDSIYNGLNTNEVKGNTKPGLVDVELAELNIEYIDKMTWKRCIRDGTMTLDSWAQTTFSARYSTVLEKLRGIYIFCTEMFALTDDNGTSDFSAEPQNLEKILYRKHCTPYELTWLFKKLANSLGITCEIVIGFLKTPSAINWEFKYNHCWLRILVNKEWRFIDVILGNVTNPIHEFVNNRKIKKAENSYFLMAPLEMIYTHIPPREFEQHIVPSIDQLSALYLPLVFPSFFKNELKLYKFSTALSFLEDSEIYECSLEIPNDVEVFASVVIPTDNEEASSAYRNMELALTQIKKQKAESGRRIALIKAVLPPNVNKGSLYIHSGVRGTQTSIANIHPLSMMVPLTHKGSNMKYEFVIKIPSESIQKIELYIVEPQSRYLFVGNEYSFEVIQSPSDGIVYSSDEGPNQNRKQPMAIKSPSGRVHELVKSDPHFPYGTWKGSIKIKEPGVWSALVIADSGIGWSVFAEWLCV
Growth (Fig. S2D) (Bathophenanthroline.0.1uM): 10.8556 | Growth (Fig. S2D) (Bathophenanthroline.10uM): 10.6576 | Growth (Fig. S2D) (Bathophenanthroline.1uM): 10.8513 | Growth (Fig. S2D) (CaCl2.100mM): 10.8897 | Growth (Fig. S2D) (CaCl2.250mM): 10.7885 | Growth (Fig. S2D) (CaCl2.500mM): 10.3059 | Growth (Fig. S2D) (Caffein.10mM): 9.982 | Growth (Fig. S2D) (Caffein.2mM): 10.9591 | Growth (Fig. S2D) (CdCl2.100uM): 9.489 | Growth (Fig. S2D) (CdCl2.10uM): 10.8859 | Growth (Fig. S2D) (CdCl2.50uM): 9.907 | Growth (Fig. S2D) (CuSO4.1mM): 10.4416 | Growth (Fig. S2D) (CuSO4.5mM): 8.067 | Growth (Fig. S2D) (Cycloheximide.0.05.uM): 11.0397 | Growth (Fig. S2D) (Cycloheximide.0.2.uM): 10.6845 | Growth (Fig. S2D) (Cycloheximide.0.5.uM): 10.0538 | Growth (Fig. S2D) (DMSO.2.): 11.074 | Growth (Fig. S2D) (DMSO.6.): 9.997 | Growth (Fig. S2D) (DMSO.8.): 9.341 | Growth (Fig. S2D) (Ethanol.2.): 10.829 | Growth (Fig. S2D) (Ethanol.6.): 10.3434 | Growth (Fig. S2D) (Ethanol.8.): 10.1675 | Growth (Fig. S2D) (Galactose.2.): 10.8951 | Growth (Fig. S2D) (Glycerol.2.): 9.685 | Growth (Fig. S2D) (Hydroxyurea.25mM): 10.7817 | Growth (Fig. S2D) (Hygromycin.190uM): 10.9791 | Growth (Fig. S2D) (Hygromycin.19uM): 10.9621 | Growth (Fig. S2D) (Hygromycin.95uM): 11.0521 | Growth (Fig. S2D) (MMS.0.004.): 10.9601 | Growth (Fig. S2D) (MMS.0.02.): 10.7185 | Growth (Fig. S2D) (MMS.0.04.): 9.916 | Growth (Fig. S2D) (Menadione.100uM): 10.6134 | Growth (Fig. S2D) (Menadione.200uM): 10.436 | Growth (Fig. S2D) (Menadione.50uM): 10.8202 | Growth (Fig. S2D) (NaCl.0.25M): 10.7906 | Growth (Fig. S2D) (NaCl.1M): 9.617 | Growth (Fig. S2D) (Nitroquinoline.10uM): 10.7078 | Growth (Fig. S2D) (Nitroquinoline.50uM): 10.6701 | Growth (Fig. S2D) (Nystatin.0.01uM): 11.0601 | Growth (Fig. S2D) (Nystatin.0.1uM): 11.0266 | Growth (Fig. S2D) (Raffinose.2.): 11.0502 | Growth (Fig. S2D) (Rapamycin.10nM): 9.888 | Growth (Fig. S2D) (Rapamycin.50nM): 9.494 | Growth (Fig. S2D) (SC.pH3): 10.4532 | Growth (Fig. S2D) (SC.pH6): 11.0119 | Growth (Fig. S2D) (SDS.0.01.): 11.0053 | Growth (Fig. S2D) (SDS.0.02.): 10.9934 | Growth (Fig. S2D) (SDS.0.05.): 10.9282 | Growth (Fig. S2D) (Sorbitol.10mM): 11.048 | Growth (Fig. S2D) (Sorbitol.1mM): 11.0333 | Growth (Fig. S2D) (Sorbitol.5mM): 10.9546

B2: ABP1: yeast SH3-containing protein; SH3-deleted (D) or gene-deleted (KO) strain (protein, UniProt P15891 2-592, looked up)
Actin-binding protein: ALEPIDYTTHSREIDAEYLKIVRGSDPDTTWLIISPNAKKEYEPESTGSSFHDFLQLFDETKVQYGLARVSPPGSDVEKIIIIGWCPDSAPLKTRASFAANFAAVANNLFKGYHVQVTARDEDDLDENELLMKISNAAGARYSIQTSSKQQGKASTPPVKKSFTPSKSPAPVSKKEPVKTPSPAPAAKISSRVNDNNDDDDWNEPELKERDFDQAPLKPNQSSYKPIGKIDLQKVIAEEKAKEDPRLVQKPTAAGSKIDPSSDIANLKNESKLKRDSEFNSFLGTTKPPSMTESSLKNDDDKVIKGFRNEKSPAQLWAERKAKQNSGNAETKAEAPKPEVPEDEPEGEPDVKDLKSKFEGLAASEKEEEEMENKFAPPPKKSEPTIISPKPFSKPQEPVKAEEAEQPKTDYKKIGNPLPGMHIEADNEEEPEENDDDWDDDEDEAAQPPLPSRNVASGAPVQKEEPEQEEIAPSLPSRNSIPAPKQEEAPEQAPEEEIEEEAEEAAPQLPSRSSAAPPPPPRRATPEKKPKENPWATAEYDYDAAEDNELTFVENDKIINIEFVDDDWWLGELEKDGSKGLFPSNYVSLGN
size (colony size) (Abp1 SH3 swaps (FigS2D), SC pH6, Plate 1, Time 74, Rep 1, one colony): 2065 | relative_to_wt, D_minus_WT (Bathophenanthroline 0.1uM, D = SH3 deletion (all SH3s deleted for multi-SH3 proteins), log2 colony size, 74 h at 37 °C, n = 12): 0.05618 | relative_to_wt, KO_minus_WT (Bathophenanthroline 0.1uM, KO = gene deletion, log2 colony size, 74 h at 37 °C, n = 12): -0.004019 | Growth (Fig. S2D) (Bathophenanthroline.0.1uM): 10.7819 | Growth (Fig. S2D) (Bathophenanthroline.10uM): 10.707 | Growth (Fig. S2D) (Bathophenanthroline.1uM): 10.7137 | Growth (Fig. S2D) (CaCl2.100mM): 10.7891 | Growth (Fig. S2D) (CaCl2.250mM): 10.7489 | Growth (Fig. S2D) (CaCl2.500mM): 10.224 | Growth (Fig. S2D) (Caffein.10mM): 10.0464 | Growth (Fig. S2D) (CdCl2.10uM): 10.9024 | Growth (Fig. S2D) (CdCl2.50uM): 10.1243 | Growth (Fig. S2D) (CuSO4.1mM): 10.685 | Growth (Fig. S2D) (CuSO4.5mM): 8.504 | Growth (Fig. S2D) (Cycloheximide.0.05.uM): 11.0798 | Growth (Fig. S2D) (Cycloheximide.0.2.uM): 10.7165 | Growth (Fig. S2D) (Cycloheximide.0.5.uM): 10.6015 | Growth (Fig. S2D) (DMSO.2.): 11.0276 | Growth (Fig. S2D) (DMSO.6.): 10.032 | Growth (Fig. S2D) (DMSO.8.): 9.2108 | Growth (Fig. S2D) (Ethanol.2.): 10.8119 | Growth (Fig. S2D) (Ethanol.6.): 10.4593 | Growth (Fig. S2D) (Ethanol.8.): 10.4305 | Growth (Fig. S2D) (Galactose.2.): 10.8275 | Growth (Fig. S2D) (Glycerol.2.): 10.3524 | Growth (Fig. S2D) (Hydroxyurea.25mM): 10.8959 | Growth (Fig. S2D) (Hygromycin.190uM): 10.9986 | Growth (Fig. S2D) (Hygromycin.19uM): 10.9797 | Growth (Fig. S2D) (Hygromycin.95uM): 11.0235 | Growth (Fig. S2D) (MMS.0.004.): 10.9969 | Growth (Fig. S2D) (MMS.0.02.): 10.8642 | Growth (Fig. S2D) (MMS.0.04.): 10.3851 | Growth (Fig. S2D) (Menadione.100uM): 10.5759 | Growth (Fig. S2D) (Menadione.200uM): 10.5046 | Growth (Fig. S2D) (Menadione.50uM): 10.8116 | Growth (Fig. S2D) (NaCl.0.25M): 10.7355 | Growth (Fig. S2D) (NaCl.1M): 10.3236 | Growth (Fig. S2D) (Nitroquinoline.10uM): 10.7675 | Growth (Fig. S2D) (Nitroquinoline.50uM): 10.7265 | Growth (Fig. S2D) (Nystatin.0.01uM): 11.043 | Growth (Fig. S2D) (Nystatin.0.1uM): 11.0609 | Growth (Fig. S2D) (Raffinose.2.): 10.9185 | Growth (Fig. S2D) (Rapamycin.10nM): 10.1065 | Growth (Fig. S2D) (Rapamycin.50nM): 9.408 | Growth (Fig. S2D) (SC.pH3): 10.3986 | Growth (Fig. S2D) (SC.pH6): 11.0415 | Growth (Fig. S2D) (SDS.0.01.): 10.9914 | Growth (Fig. S2D) (SDS.0.02.): 10.9706 | Growth (Fig. S2D) (SDS.0.05.): 10.8264 | Growth (Fig. S2D) (Sorbitol.10mM): 10.9836 | Growth (Fig. S2D) (Sorbitol.1mM): 10.9924 | Growth (Fig. S2D) (Sorbitol.5mM): 10.9128
